# Assay results reported in patent US20250051437A1 (University of California, published 2025).
# Biological target: T1, human cadherin-17 (CDH17), endogenously expressed on human cancer cell lines (LS513, SNU-C1, PaTu8988s, … (human, UniProt Q12864 23-832))
# T1 construct: also called LS513 (Colon, CDH17+); HPAF2
# Experiment: flow cytometry of the ADC on LS513 cells (CDH17+), 20 µg/ml
row,ADC Binding Activity by Flow Cytometry,Binder
1,67400,"07-0663-h7-VC-PAB-MMAE (antibody, human IgG1, kappa, DAR about 4, V domains shown, MC-VC-PAB-MMAE on free thiols of cysteines from reduced interchain disulfides; positions not given; MC-VC-PAB-MMAE on free thiols of cysteines from reduced interchain disulfides; average 4 MMAE per antibody; positions not given) VH: QVQLVQSGAEVKKPGSSVKISCKVSGYTFTDHTIHWMRQAPGQGLEWIGYIFPRDDIVVYAQKFQGRATLTADKSTSTAYMELSSLRSEDTAVYYCARPPYYYSRNFYFDYWGQGTTLTVSS VL: DIQMTQSPSSLSASVGDRVTITCRVSSIISSSKLHWYQQKPGKAPKPLIYGTSTLASGVPSRFSGSGSGTDYTLTISSLQPEDFATYYCQQWSNYPFTFGQGTKLEIKR"
2,35100,"07-0653-h43-VC-PAB-MMAE (antibody, human IgG1, DAR about 4, V domains shown, MC-VC-PAB-MMAE on free thiols of cysteines from reduced interchain disulfides; positions not given; MC-VC-PAB-MMAE on free thiols of cysteines from reduced interchain disulfides; average 4 MMAE per antibody; positions not given, also called CDH17-ADC-653-h43; 07-0653-h43-MMAE) VH: QVQLVQSGAEVKKPGASVKVSCKASGYTFTDYYMNWVRQAPGQGLEWMGVIYPYSGGIGYAQKFQGRVTMTVDKSTSTAYMELSSLRSEDTAVYYCARGRGDYFGLFDFWGQGTTVTVSS VL: DIQLTQSPSSLSASVGDRVTITCRATSSLSYIHWYQQKPGKAPKPLIYEISKLASGVPSRFSGSGSGTDYTLTISSLQPEDFATYYCQQWNYPFTFGQGTKLEIK"
3,73500,"07-0646-h7-VC-PAB-MMAE (antibody, human IgG1, DAR about 4, V domains shown, MC-VC-PAB-MMAE on free thiols of cysteines from reduced interchain disulfides; positions not given; MC-VC-PAB-MMAE on free thiols of cysteines from reduced interchain disulfides; average 4 MMAE per antibody; positions not given, also called CDH17-ADC-646-h7; 07-0646-h7-MMAE) VH: QVQLVQSGAEVKKPGASVKMSCKASGYTFTSYNMHWVRQAPGQGLEWIGAIYPGNGDTSYAQKFQGRATLTVDTSTSTAYMELSSLRSEDTAVYYCARGRGRYFEYWGQGTTLTVSS VL: DIQLTQSPSSLSASVGDRVTMTCRASSSVSSSYLHWYQQKPGKAPKLLIYSTSNLASGVPSRFSGSGSGTDYTLTISSVQPEDFATYYCQQYDSSPSTFGQGTKLEIK"

# Biological target: T1, human cadherin-17 (CDH17), endogenously …
# Experiment: indirect flow cytometry (iQue) on LS513 cells (CDH17+), anti-His secondary antibody
# Description: Bispecific antibodies and scFv fragments were assessed for their binding effect to CDH17 positive cells by an indirect flow cytometry assay iQue® (Sartorius, Gottingen, Germany). The asssays were performed with CDH17 positive LS513 cells or CDH17 negative M202 cells using the primary antibody and fluorochrome-labeled anti-His secondary antibody using the iQue® where FL4-H values acquired by iQue® software were reported.
row,FL4-H,Binder
1,864000,"07-0646-h7scFv anti-CDH17 scFv (scFv, VL-linker-VH; also called CDH17-646-h7scfv; 07-0646-7scFv) scFv: DIQLTQSPSSLSASVGDRVTMTCRASSSVSSSYLHWYQQKPGKAPKLLIYSTSNLASGVPSRFSGSGSGTDYTLTISSVQPEDFATYYCQQYDSSPSTFGQGTKLEIKGGGGSGGGGSGGGGSQVQLVQSGAEVKKPGASVKMSCKASGYTFTSYNMHWVRQAPGQGLEWIGAIYPGNGDTSYAQKFQGRATLTVDTSTSTAYMELSSLRSEDTAVYYCARGRGRYFEYWGQGTTLTVSSHHHHHH"
2,2.05e+06,"07-0663-h7scFv anti-CDH17 scFv (scFv, VL-linker-VH) scFv: DIQMTQSPSSLSASVGDRVTITCRVSSIISSSKLHWYQQKPGKAPKPLIYGTSTLASGVPSRFSGSGSGTDYTLTISSLQPEDFATYYCQQWSNYPFTFGQGTKLEIKGGGGSGGGGSGGGGSQVQLVQSGAEVKKPGSSVKISCKVSGYTFTDHTIHWMRQAPGQGLEWIGYIFPRDDIVVYAQKFQGRATLTADKSTSTAYMELSSLRSEDTAVYYCARPPYYYSRNFYFDYWGQGTTLTVSSHHHHHH"
3,2.21e+06,"07-0653-h43scFv anti-CDH17 scFv (scFv, VL-linker-VH; also called CDH17-653-h43scfv) scFv: DIQLTQSPSSLSASVGDRVTITCRATSSLSYIHWYQQKPGKAPKPLIYEISKLASGVPSRFSGSGSGTDYTLTISSLQPEDFATYYCQQWNYPFTFGQGTKLEIKGGGGSGGGGSGGGGSQVQLVQSGAEVKKPGASVKVSCKASGYTFTDYYMNWVRQAPGQGLEWMGVIYPYSGGIGYAQKFQGRVTMTVDKSTSTAYMELSSLRSEDTAVYYCARGRGDYFGLFDFWGQGTTVTVSSHHHHHH"
